This note sets out measurements from PMC10837206, “R-Spondin 2 governs Xenopus left-right body axis formation by establishing an FGF signaling gradient” (Nature Communications, 2024).

In assay [1] the target is T1, recombinant human FGFR4 Fc Chimera (human, UniProt P22455 22-369).
T1 construct: Fibroblast Growth Factor receptor 4 (FGFR4), human, extracellular domain; also called FGFR4^ECD; extracellular domain (ECD) of FGFR4; source: bought: R&D systems 685-FR and BioLegend 752502
T1 sequence (looked up): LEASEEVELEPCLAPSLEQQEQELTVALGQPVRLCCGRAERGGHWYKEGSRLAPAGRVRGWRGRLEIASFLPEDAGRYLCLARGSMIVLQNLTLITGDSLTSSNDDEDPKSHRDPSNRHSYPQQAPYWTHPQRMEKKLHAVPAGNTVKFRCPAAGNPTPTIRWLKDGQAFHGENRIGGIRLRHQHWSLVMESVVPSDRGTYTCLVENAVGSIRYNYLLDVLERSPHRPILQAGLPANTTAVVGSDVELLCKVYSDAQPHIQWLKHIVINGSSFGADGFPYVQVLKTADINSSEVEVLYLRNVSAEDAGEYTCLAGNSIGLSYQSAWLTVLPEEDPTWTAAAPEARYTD
In words: in vitro competitive binding assay (solid phase, bound AP activity); as a8; the peptide (100 uM) against coated FGFR4 Fc Chimera. The settings on record: both partners purified.

In assay [2] the target is T1, recombinant human FGFR4 Fc Chimera. In words: in vitro binding assay (solid phase, bound AP activity); titration of RSPO2-AP on coated FGFR4 Fc Chimera (R&D systems 685-FR); Scatchard analysis. The settings on record: one partner purified.

B1: TK peptide (10-mer derived from the human RSPO2 TSP1 domain) (peptide)
peptide: TRQIVKKPVK
notes: stretch of the TSP1 domain of human R-Spondin 2 (RSPO2)
Turning to B1, in assay [1], the binding result was “binds”.

B2: KC peptide (10-mer derived from the human RSPO2 TSP1 domain) (peptide)
peptide: KKPVKDTILC
notes: as for B1
In the case of B2, the binding result in assay [1] is reported as “binds”.

B3: human RSPO2-AP (alkaline-phosphatase-tagged R-Spondin 2 fusion protein) (ligand, UniProt Q6UXX9 22-243, looked up)
chain: QGNRWRRSKRASYVSNPICKGCLSCSKDNGCSRCQQKLFFFLRREGMRQYGECLHSCPSGYYGHRAPDMNRCARCRIENCDSCFSKDFCTKCKVGFYLHRGRCFDECPDGFAPLEETMECVEGCEVGHWSEWGTCSRNNRTCGFKWGLETRTRQIVKKPVKDTILCPTIAESRRCKMTMRHCPGGKRTPKAKEKRNKKKKRKLIERAQEQHSVFLATDRANQ
notes: R-Spondin 2 (RSPO2), human; also called R2; source: HEK293T, transfected, conditioned medium
As for B3, in assay [2], the equilibrium dissociation constant (Kd) (commonly the concentration at which binding is half-saturated) worked out at 1.5 nM.
